First the molecules themselves.
B1: SEQ ID NO: 10 (protein)
chain: MHAALSPLSQRFERIAVQPLTGVLGAEITGVDLREPLDDSTWNEILDAFHTYQVIYFPGQAITNEQHIAFSRRFGPVDPVPHLKSIEGYPEVQMIRREANESGRVIGDDWHTDSTFLDAPPAAVVMRAIDVPEHGGDTGFLSMYTAWETLSPTMQATIEGLNVVHSATRVFGSLYQAQNRRFSNTSMKVMDVDAGDRETVHPLVVTHPGSGRKGLYVNQVYCQRIEGMTDAESKPLLQFLYEHATRFDFTCRVRWKKDQVLVWDNLCTMHRAVPDYAGKFRYLTRTTVGGVRPAR
B2: SEQ ID NO: 14 (protein)
chain: MHAALSPLSQRFERIAVQPLTGVLGAEITGVDLREPLDDSTWNEILDAFHTYQVIYFPGQAITNEQHIAFSRRFGPVDPVPHLKSIEGYPEVQMIRREANESGRVIGDDWHTDSTFLDAPPAAVVMRAIDVPEHGGDTGFLSMYTAWETLSPTMQATIEGLNVVHSATRVFGSLYQAQNRRFSNTSIKVMDVDAGDRETVHPLVVTHPGSGRKGLYVNQVYCQRIEGMTDAESKPLLQFLYEHATRFDFTCRVRWKKDQVLVWDNLCTMHRAVPDYAGKFRYLTRTTVGGVRPAR
B3: SEQ ID NO: 66 (protein)
chain: MHAALSPLSQRFERIAVQPLTGVLGAEITGVDLREPLDDSTWNEILDAFHTYQVIYFPGQAITNEQHIAFSRRFGPVDPVPHLKSIEGYPEVQMIRREANESGGVIGDEWHTDSTFLDAPPAAVVMRAIDVPEHGGDTGFLSMYTAWETLSPTMQATIEGLNVVHSATRVFGSLYQAQNRRWSNTSLKVMDVDAGDRETVHPLVVTHPGSGRKGLYVNQVYCQRIEGMTDAESKPLLQFLYEHATRFDFTCRVRWKKDQVLVWDNLCTMHRAVPDYAGKFRYLTRTTVGGVRPAR
B4: SEQ ID NO: 74 (protein)
chain: MHAALSPLSQRFERIAVQPLTGVLGAEITGVDLREPLDDSTWNEILDAFHTYQVIYFPGQAITNEQHIAFSRRFGPVDPVPHLKSIEGYPEVQMIRREANESGGVIGDDWHTDSTFLDAPPAAVVMRAIDVPEHGGDTGFLSMYTAWETLSPTMQATIEGLNVVHSATRVFGSLYQAQNRRWSNTSLKVMDVDAGDRETVHPLVVTHPGSGRKGLYVNPVYCQRIEGMTDAESKPLLQFLYEHATRFDFTCRVRWKKDQVLVWDNLCTMHRAVPDYAGKFRYLTRTTVGGVRPAR
B5: SEQ ID NO: 70 (protein)
chain: MHAALSPLSQRFERIAVQPLTGVLGAEITGVDLREPLDDSTWNEILDAFHTYQVIYFPGQAITNEQHIAFSRRFGPVDPVPHLKSIEGYPEVQMIRREANESGGVIGDDWHTDSTFLDAPPAAVVMRAIDVPEHGGDTGFLSMYTAWETLSPTMQATIEGLNVVHSATRVFGSLYQAQNRRWSNTSLKVMDVDAGDRETVHPLVVTHPGSGRKGLYVNCVYCQRIEGMTDAESKPLLQFLYEHATRFDFTCRVRWKKDQVLVWDNLCTMHRAVPDYAGKFRYLTRTTVGGVRPAR
B6: SEQ ID NO: 26 (protein)
chain: MHAALSPLSQRFERIAVQPLTGVLGAEITGVDLREPLDDSTWNEILDAFHTYQVIYFPGQAITNEQHIAFSRRFGPVDPVPHLKSIEGYPEVQMIRREANESGLVIGDDWHTDSTFLDAPPAAVVMRAIDVPEHGGDTGFLSMYTAWETLSPTMQATIEGLNVVHSATRVFGSLYQAQNRRFSNTSLKVMDVDAGDRETVHPLVVTHPGSGRKGLYVNQVYCQRIEGMTDAESKPLLQFLYEHATRFDFTCRVRWKKDQVLVWDNLCTMHRAVPDYAGKFRYLTRTTVGGVRPAR
B7: SEQ ID NO: 18 (protein)
chain: MHAALSPLSQRFERIAVQPLTGVLGAEITGVDLREPLDDSTWNEILDAFHTYQVIYFPGQAITNEQHIAFSRRFGPVDPVPHLKSIEGYPEVQMIRREANESGAVIGDDWHTDSTFLDAPPAAVVMRAIDVPEHGGDTGFLSMYTAWETLSPTMQATIEGLNVVHSATRVFGSLYQAQNRRFSNTSLKVMDVDAGDRETVHPLVVTHPGSGRKGLYVNQVYCQRIEGMTDAESKPLLQFLYEHATRFDFTCRVRWKKDQVLVWDNLCTMHRAVPDYAGKFRYLTRTTVGGVRPAR
B8: SEQ ID NO: 30 (protein)
chain: MHAALSPLSQRFERIAVQPLTGVLGAEITGVDLREPLDDSTWNEILDAFHTYQVIYFPGQAITNEQHIAFSRRFGPVDPVPHLKSIEGYPEVQMIRREANESGRVIGDDWHTDSTFLDAPPAAVVMRAIDVPEHGGDTGFLSMYTAWETLSPTMQATIEGLNVVHSATRVFGSLYQAQNRRWSNTSLKVMDVDAGDRETVHPLVVTHPGSGRKGLYVNQVYCQRIEGMTDAESKPLLQFLYEHATRFDFTCRVRWKKDQVLVWDNLCTMHRAVPDYAGKFRYLTRTTVGGVRPAR
B9: SEQ ID NO: 34 (protein)
chain: MHAALSPLSQRFERIAVQPLTGVLGAEITGVDLREPLDDSTWNEILDAFHTYQVIYFPGQAITNEQHIAFSRRFGPVDPVPHLKSIEGYPEVQMIRREANESLRVIGDDWHTDSTFLDAPPAAVVMRAIDVPEHGGDTGFLSMYTAWETLSPTMQATIEGLNVVHSATRVFGSLYQAQNRRFSNTSLKVMDVDAGDRETVHPLVVTHPGSGRKGLYVNQVYCQRIEGMTDAESKPLLQFLYEHATRFDFTCRVRWKKDQVLVWDNLCTMHRAVPDYAGKFRYLTRTTVGGVRPAR
B10: SEQ ID NO: 22 (protein)
chain: MHAALSPLSQRFERIAVQPLTGVLGAEITGVDLREPLDDSTWNEILDAFHTYQVIYFPGQAITNEQHIAFSRRFGPVDPVPHLKSIEGYPEVQMIRREANESGDVIGDDWHTDSTFLDAPPAAVVMRAIDVPEHGGDTGFLSMYTAWETLSPTMQATIEGLNVVHSATRVFGSLYQAQNRRFSNTSLKVMDVDAGDRETVHPLVVTHPGSGRKGLYVNQVYCQRIEGMTDAESKPLLQFLYEHATRFDFTCRVRWKKDQVLVWDNLCTMHRAVPDYAGKFRYLTRTTVGGVRPAR
B11: SEQ ID NO: 62 (protein)
chain: MHAALSPLSQRFERIAVQPLTGVLGAEITGVDLREPLDDSTWNEILDAFHTYQVIYFPGQAITNEQHIAFSRRFGPVDPVPHLKSIEGYPEVQMIRREANESGGVIGCDWHTDSTFLDAPPAAVVMRAIDVPEHGGDTGFLSMYTAWETLSPTMQATIEGLNVVHSATRVFGSLYQAQNRRWSNTSLKVMDVDAGDRETVHPLVVTHPGSGRKGLYVNQVYCQRIEGMTDAESKPLLQFLYEHATRFDFTCRVRWKKDQVLVWDNLCTMHRAVPDYAGKFRYLTRTTVGGVRPAR
B12: SEQ ID NO: 90 (protein)
chain: MHAALSPLSQRFERIAVQPLTGVLGAEITGVDLREPLDDSTWNEILDAFHTYQVIYFPGQAITNEQHIAFSRRFGPVDPVPHLKSIEGYPEVQMIRREANESLRVIGDDWHTDSTFLDAPPAAVVMRAIDVPEHGGDTGFLSMYTAWETLSPTMQATIEGLNVVHSATRVFGSLYQAQNLRWSNTSLKVMDVDAGDRETVHPLVVTHPGSGRKGLYVNQVYCQRIEGMTDAESKPLLQFLYEHATRFDFTCRVRWKKDQVLVWDNLCTMHRAVPDYAGKFRYLTRTTVGGVRPAR

Twelve molecules from patent publication US20250163449A1, “HERBICIDE-TOLERANT GENES AND METHOD FOR USING SAME” (QINGDAO KINGAGROOT CHEMICAL COMPOUND CO., LTD., priority 2022, published 2025) can be followed below.

The first data set is described as follows: Conversion rate of substrate compound A by E. coli expressing each engineered protein (HPLC, oxygenase activity). In kind it is biochemical. The conditions noted are these: Reaction condition 1: bacteria cultured overnight, substrate compound A and IPTG added to react overnight. An excerpt:
The high-throughput bacterial protein expression was achieved by cloning the synthesized gene that encodes each engineered protein into a bacterial expression vector with a C-terminal histidine tag (His-tag). The vectors were transformed into Escherichia coli (E. coli), and expression of the engineered proteins was induced. E. coli cultures were selected and cultured in centrifuge tubes overnight, meanwhile, added with substrates and IPTG, and the cultures were centrifuged to pellet the bacteria the next day. Alternatively, E. coli cultures were selected and cultured in centrifuge tubes overnight, and centrifuged to pellet the bacteria after adding substrates for reaction the next day. The supernatant of reaction solution was pipetted into a 96-well plate and the absorbance at 510 nm from 4-aminoantipyrine and potassium ferricyanide was measured by an endpoint colorimetric method to detect phenol products. Substrate reduction and product yield were measured by high performance liquid chromatography (HPLC) to detect the oxygenase activity (i.e., enzymatic activity) of the engineered proteins, and the activities of the proteins were compared by calculating conversion rates.
Conversion rate=(Peak area of initial substrate−Peak area of substrate after reaction)/Peak area of initial substrate*100%
In turn, B1 yielded a Conversion rate of 94.1%. The same measure, in the same setting: next, B2: 76.8%; B3: 94%; B4: 97.2%. Still for that read-out and setting: next, B5: 94%; B6: 96.8%.

In turn, B7 yielded a Conversion rate of 92.1%. On the same count and under the same terms, then B8, with 96.5%.

The molecule B9 showed a Conversion rate of 90%.

On to B10, for which the Conversion rate was 95.5%.

Take B11: the Conversion rate came to 90%.

Staying with this data set, now noted: Reaction condition 2: bacteria cultured overnight, 8 times dose of substrate compound A of condition 1 added, react 3 hours the next day.
For the molecule B12, the Conversion rate is recorded as 57.5%.
